Source: the DeepSol protein solubility set

Test: soluble on expression in E. coli; label from the status in PepcDB or PDB records

MAHHHHHHQTQTPSQLLQSFTTRTTDYNQLINSVGINAITPQQIQRIEKLSGKAPHHYLSRGVFLAEKSLDKFLDDVEAKKPTFIFIQKYPQKEVALEEYITLEFARYLQDAFNIQVIIQILDDIKVLNREATINEASKMSNDLMKYILAFGFNEDKTFIYTDYQYFGKMYRTISLVEKATAYNVVQPFFNFEYSDNIGKLASPSIMTASMFSQSYSHFFSSPARCLVLDSIKNVQFHSIIDQIATTLNFIQPTVLFHKMVPLLSGVTKFDIPSDHNSILLSDNAKQVERKINKLAFSGGRNTTEEHKKLGGQCDIDVSFQLLNIFSSDNAQVKDVEEKYSKGELLSGELKKIVSASMKDFIVAYDAKKKPITTAYLKAYISKTKF
soluble on expression in E. coli: soluble

ITTKKGQEGKPAINVRTEFGFTAPTKRPEMINSAQWAELYNEASGTNYYSPEVIQKYRDHSDPDLYPDVDWFDALFDDMAENQRVNLSVTGGGDNIKYYVSGSFYNESSIYKNAGNIYGYNSAIRYNKFNFRANVDLNVTKSTTLNVNLANIYEKSFGPGFGDNDNDIWSYTFNASPNAFPVQYSDGTLSGPSTDSGHNPWNMLVHSGYREQFWNSAQSLIGLTQDFGKIWEPLEGLTANIKFSWDAWNTTLQRRSKSPSFYHARGRDAEGRLMYDDNNNDGEWDPVHTGSESLGYEIGRQGTMTRYLEGSLNYNRLFGNHRVGALFLYNQKIHTNTQAADGNAALPYKNQGLAGRVTYAFRDTYFAEVNMGYNGSENFARGHRFGFFPAFALGWMVSNEKWFEPLTKTIDMLKLKGSYGKVGNDDIGGQRRWVYESTIVGTGDQGWWFGQSGNQGGAGIRVGEIENLYASWEEATKLNLGVEFSLFNKVKVQADYFREERQGIFLQRAGLPAIVGLSTIPYVNIGRTLNKGFDANVEYNHQIGKVFLTARGNFTFSRNKLLDNDEPDWEYKYQNRIGKPFGSDGQMQPFGLVALGLFQSQEEIDNSPRQTFGEYRVGDIKYQDINGDGIIDTQDEVAIGYTNLPEIMYGFGLGAQWKNWDINAFFQGSAHTSFFLDGVSVKSPFSSGNMERAAINKDLWGKVWMSTNSPEQNAHVTYPRLSNGSGGAGASNNNKNSTWWLRNGSFLRLKNIEIGYTLPKEFVTKTFIKSLRFYVSGNNLLTFSSFKLWDPEKAKGSSDGSGYPLNRVVTVGFNANF
soluble on expression in E. coli: not soluble

MSLEFGRELPGKRDPQARLKDYKELYLDFSATQIKNQAARCMNCGVPFCHSGCPLGNIIPEFNDAVYRNDWEEAAEILFSTNNFPEFTGRICPAPCEASCVLGINKPPVTIENIEKSIVETAFEKGILKPNPPKKRTGKTVAVVGSGPAGLAAAAQLNSAGHTVTVFERADQVGGLLRYGIPDFKLEKWVIDRRVKLMEEEGVIFKTNTNVGVTVKAKDIVKEFDAVVLTGGSTVGRDLPIPGRQFKGVHFAMEFLSQQNKRVANIKPEIDHTGEAYKNGDLLATAKNVVVIGGGDTGSDCVGTSNRHGAKSVLQFELMPKPPENKNETTPWPNWPMILRTSTSHEEGCDRLWSITTKEFIGDADGNLTGLKIAEMGWVTAPDSKLPKYQELPGTERVIPCELTLLAMGFLHPQHAGMLNELGVEYDERGNIKANGKYQTNVDKVFTAGDMRRGQSLVVWAISEGREAARNVDIFLMGTTSLEAKDHGMLDTVYAEGHHHHHH
soluble on expression in E. coli: soluble

MSYGLIIVLMIILGIGLWHTKKYHRAVVNQVAHVWITKNAFEHTALGMAIVSPDCRFLKVNRAYGEITGYTRPELLKMAVKELTHPEDQEKDTPYLQEVFAGNIHSFTTVKRYIHKNGSTIWVRSTISAVRTERGNLEHHHHHH
soluble on expression in E. coli: soluble

MKLRHLPLIAAIGLFSTVTLAAGYTGPGATPTTTTVKAALEAADDTPVVLQGTIVKRIKGDIYEFRDATGSMKVEIDDEDFPPMEINDKTRVKLTGEVDRDLVGREIDVEFVEVIK
soluble on expression in E. coli: not soluble

LKQQQQQQQQQQQQQQQQQQQQQQQQQQQQQQQQQQQQQQQQQQQQQQQQQQQQQQQQQQQQQQQQQQKSQNRTKQEQGQQSQNQQDAENKKEKQESEHKAKQQKAETEVEKQGEQKKGEPMQAQAQPEKSHQDDPEFRRLEAVESARDPSFLIRAQMQLQAQQKQRPQQSQKEW
soluble on expression in E. coli: not soluble

MSIKKSPVYNVIAVPVEKVQANDYNPNVVAPPEMRLLELSIWEDGFTMPCVCYYDKEKDVYILVDGFHRYSVLKTSKRIFQRENGMLPIVVIEKDLSNRMSSTIRHNRARGTHNIELMCHIVAELDKAGMSDQWIMKNIGMDRDELLRLKQISGLADLFANRDFSVPEDDQPGNVDKKPTR
soluble on expression in E. coli: not soluble

MGSDKIHHHHHHMEKQSDSYYISAVQAGDTESFAPLVERYSDMLYALLCRLLQDEEDAADLLQDTFVKAFRHISRFDGRSSFSTWIYRIAYNEAIDHLRRHKAYVTDRVEELPDVPDEDLEPSGEDPELLQQALDSLPAADKALLLMFYSDDLSVRDIAEVTGMSESNVKVKLHRLRTKLYKMMRK
soluble on expression in E. coli: not soluble

RIPVKYGNADGEYCKFPFLFNGKEYNSCTDTGRSDGFLWCSTTYNFEKDGKYGFCPHEALFTM
soluble on expression in E. coli: soluble

MRFVFDIDGTLCFDGRLIDQTIIDTLLQLQHDGHELIFASARPIRDLLPVLPSVFHQHTLIGANGAMISQQSKISVIKPIHTDTYHHILKIIQKYELDYIIDDDWNYAAQLDAENAIFERLDPHKLASCIDVANIDTPIKIILLNIDPAQITTILDELNKYHQELEMIHHSNEYNIDITAQNINKYTALQYIFDADVKYIAFGNDHNDIFMLQHASSGYIIGPSEAYTHAILKLDKIKHINNNTQAICKVLKSYK
soluble on expression in E. coli: not soluble

MSLNPRLFSPHIIRSLLDLDAYKINMMQAIHHFYPDVSVRYELIVRSEEDASGLLDAIRQEIAHLGTLRFSDADIHYLTQHAPHLKATFLQSLRYFHFVPQEQVEMGIVKQGGKQQLRISIRGSWRDTILYETLVMAIVSEVRSRQRWAEVPADLPLKVLKTKLDQLKAEIERRGINNFSLTEMGTRRRFSSQVQRDVLACLKQEIPQWVLGTSNYHFAREFDLKPIGTIAHEWFMGHQALVNERDSQQVALERWLTAFDGMLAIAPTDTLTIDAFLNDFNRHLANAYDGVRHDSGCPFRWGDKMIAHYQQLGIDPTTKLFIFSDGLDFDQALELCEYFAGRVKISFGIGTFLTNDLANWRNAAGVEYRPLSIVIKLAECQGRPVAKISDQPEKAMCEDPIFLANLKRRFNIELDVDALIQELRHQKRSPRHYISAAEGHHHHHH
soluble on expression in E. coli: soluble

MSVFHDEVEIEDFEFDEEKDVYHYPCPCGDRFEIPREMLEMGEDVAQCPSCSLLIRVIYDPEDFVKLETISTSKPIAEPV
soluble on expression in E. coli: not soluble

QYRPMSEKQFSRPVLIVPPQINKYYIFDLSPANSFVQYALKNGLSTFIISWRNPDIRHREWGLSSYVEAAEQAMNICRAISGAREVNLVGACAGGLTIAALLGHLQVKRQTRRVASATYMVSLLDSQIDSPATLFIDEQALEAAKRRSYQRGVLEGSEMSRVFSWMRPNDLIWTYWINNYLLGKSPPPFDILYWNNDTTRLPAALHGDLLDFFKHNPLSHAGGLEVCGTPIDLQKVTVDSFSVAGINDHITPWDSVYRSTLLLGGDRRFVLANSGHVQSILNP
soluble on expression in E. coli: not soluble

MIHVREFQASDSDVVLHLLDLKDIINSSSFSEKVFQLSESGDFLGLVAEANQSGKHQVVGCAFLRLLETISRGLHCQIEELAIDKAWLHQGVGKSLMETATSWAKERGVGDIYVDSPYASIAVKEGIDSVFVRDEVLEVAQQYEAEKEELQESLKKQYNTTISKLEKEYEAKKQQQDETIHNLQTQLEDATQYLEEQQAEENELLNIDPSSPRNHTGPYPRGRGFWGTLCFPIRKTCGPGSCLRLPSGPASVRGSTDRSN
soluble on expression in E. coli: soluble

MMHISVGATEMSWLSSLKSVFSPSQEVKEDDVQTILQSYSLENSSFVLKDRITQINVEGRILQLTIKTFPEEADHLQQIHDELADALQKAGIQELNLHVIQQKTAPRTEPKSSSSTTSSSSHLPPVVDASASPTPDPNNPPIQKKAPIQSEVPAHPRIKNVILVSSGKGGVGKSTTTVNLALALQKQGLKVGVLDADIYGPSIPTMLGNAGRTPKIENENFVPLDAYGLAVLSIGHLTGDNNTPVAWRGPKATGALMQLFNQTLWPDLDVLVIDMPPGTGDIQLTLAQRIPVTGALIVTTPQNVALLDASKGIELFNRVGIPVVGVIENMSTHICSNCGFEEQIFGVGGGDKLSEQYDIPLLGRLPLNAQIRENADKGQPSVIAQDTAAESYQMIAQALWTRVEQLPQRARDDKRIFLEHHHHHH
soluble on expression in E. coli: not soluble

MELQQRTLTIGLGNDIAVQTEGVGFIRGQLVADHAEINSVFKVVVKAALIVVKTLFADGYPHAIFQRFLMPDNRNRQHRADKAVGLVGIADDAEIRIAFCLISNAFFFTELIIGIGCGKADCGHFFVVFAAGSASVHKVSDFQNEFAVKPFAGKQHPHQYIGNHAGINRPPIISPQPCQQSGKRPVDYKKYAPNLRYPAGIAHGFFRQVGLLQPRKFFNHRLPGKQAAAEHRQHHQIDEDGIPIHRIMPPEHQYCGKKQCNKQSRITLLGQFGSQGAQQPQPAHRRRQPNKPARLPAVYSGLTKTSTALPRLAVLSAASSPCPDFC
soluble on expression in E. coli: not soluble

MWSCPTLNAPRAAQKWLPVRATPHLCVLHMSRLMLSSTLIDELSYVRKDQLETSALFELIAHRYERHSIAITANEPFSGWSDAMTVAAIDRLVHHSTIIEMNGESYRKRAAVARGASTQNANDEPEDPPNRSSLEHHHHHH
soluble on expression in E. coli: not soluble

MAHHHHHHMGGPPTIEELKREKIIPHVFPDENVDLTVDMYISFKSGKEVNHGNILDLAGTGSVPRNIKFSEEPPEDYCYILFMIDPDFPSRRRPDGRDYVHWAVSGIKSKELVKGTDKNCITLLPYVGPSIKKGTGLHRISFILSLVKEENKGNVTGVPLYRGEHYITRVKFNNCQSAYNVIQMNDMKIVGFNWCQMRRK
soluble on expression in E. coli: soluble

MSLNVMYKNSCPNCGGDISGDRLLNGLPCEACLPYINGIDDVDHISKVKTLYNILLNNDKIKNYWNLYYNITTFETVFKYFRDKTGYEPWSLQKLWLRRLASNQSFTMSAPTGLGKTTTLMTYSVFIGQDVVYIVPTKSLMEQVCKRLEKLGAQVSCGKIDQKKVSVITISYLNKNADSIVSLKPNFVVIDDADAVIKSGKTTDRLVSLLGIPKDVYESAIQLIRLRNKYYFSNEYTEEVKEKIRELELKIAEFKDKISQLVIASATIRPKGIKQKALRLLTGFEPSSIQLYARNIIDAYTENLDLSIVKELGSGGLILVSKEYGRSKLNEIKKYVEDLGFNAKLAISGRKFLDDFSQGKVDILVGSASYYGVAVRGIDEPKRLKYVIYYGVPKIRAKLFDALSNPFTLLRVGKLIGIDFSKLQNKILILNPSEVQLLKFSIIKGEGHHHHHH
soluble on expression in E. coli: not soluble

MPQTSAWQLNDTTARPPPPPPPPGSEAGGSDGASMNGANTLPRVSKRVSAAGKTSNIPRFKRPHLPHSTRPLSAVLTSSSSPVVHRKISPSSSAPSTSSAHRRFSHLPQQHFHHHIHHNQTAVISEETLTTPRASTLNLNQTSVFPTAISQGSMPNSGTNTAEASMTSSVCAMETEGTNGDELAESRDMVSEMQRRCRIGPSGYPHLLKAKRLRFYRNGDQYFKGIQYALQSDRVKSMQPLMEDLMKTVICDSTALPHGIRHIFTIDGAQRITSVDQFEDGGGYVCSSTDAFKPVDYSRAAEPSWRLTLANRYNRHLETKKLALSVVEPCHENTDFVFPRIIKVIRNGVKPRRISRHLLNKKTARSFDQVLRDLTFVVKLDSGAIRKLFTLSGRPVLSLQDFFRDDDVFVAYGGNEKMAADDLLVASEEHKSVGSGTSSNMRRTSRRSTMPNRNESLRHDRSGSVIPDQDQQRLPPLLDEKFQLVRLIGDGNTAVVYEVIDKTNNDDRKAMKVIARENVIGKEHLIEMELAILQKIDHTFIVQLYDHWFVDDSYYLSLELIEMGDLFEHLRIVRRVPERDAVRMMTCLGQALEYIHELGIVHRDVKLENLLIVKDEFGELGVKLADFGLAAEMPKDFGVLSTICGTPTYVAPEVLNKTGYGCKVDIWAAGVILYAILVGFPPFQSSDGSEQDLFSAIMSGEFSFPSPSWDDVSWSVRHLIMCLIHTDPFHRYSAGELLNDEWMVNLGDVDPEYEEWAHRFVQSKMHVEEEQETPYEYYTSRRTSMDELSESAAVEFSYSCES
soluble on expression in E. coli: not soluble
